Data published in US20170165338A1.

What follows are binders tested against HLA-A*02 (human) (assay: UV-exchange b2m ELISA).

peptide exchange yield [%]	Binder
50 to 75	TMDSVLVTV
< 20	LLDSVSRL
> 75	YTLDIPVLFGV
> 75	LLYPEPWSV
50 to 75	ALFAPLVHL
20 to 49	AMIEEVFEA
50 to 75	TLDEKVAEL
50 to 75	VQLDSIEDLEV
50 to 75	ALFDSLRHV
50 to 75	SLFSDEFKV
50 to 75	TITETTVEV
50 to 75	ALQEELTEL
50 to 75	ILFHGVFYA
50 to 75	GIVAHIQEV
50 to 75	RLMEENWNA
50 to 75	HLLEGSVGV
50 to 75	SLPNGKPVSV
20 to 49	SQFPLPLAV
> 75	KLMPGTYTL
20 to 49	ALFENTPKA
50 to 75	GIAGSLKTV
20 to 49	TVFTDHMLTV
20 to 49	FVDPNTQEKV
> 75	FLLATEVVTV
50 to 75	FLGPRIIGL
50 to 75	SLADTNSLAVV
> 75	ILAKDLFEI

peptide exchange yield [%]	Binder
> 75	KLEENGDLYL
50 to 75	YLLDPSITL
50 to 75	YLDLSHNQL
50 to 75	ALNIATHVL
50 to 75	YLLPLLPAL
50 to 75	SISDNVWEV
50 to 75	VLNPLITAV
50 to 75	AIQDEIRSV
50 to 75	SLATKIVEA
> 75	GLLPLLHRA
20 to 49	ALMAMLVYV
50 to 75	ALLERGELFV
50 to 75	SLFETAWEA
50 to 75	ILAPFSVDL
50 to 75	GLSQITNQL
50 to 75	VLIDPQWVLTA
50 to 75	ALSPSYLTV
20 to 49	QVIEDSTGV
50 to 75	ILLDLTDNRL
50 to 75	FLHDEKEGIYI
50 to 75	KMVGLVVAI
> 75	LLFSRLCGA
50 to 75	ILDHEVPSL
50 to 75	YIKTELISV
50 to 75	FLLPFSTVYL
50 to 75	KLLDPQEFTL
50 to 75	FLVDGSYSI
